In one test the target is T1, rhesus CD79b (rhesus monkey, UniProt H9ZFT8 30-231).
T1 construct: whole, on cells; also called rhesus monkey CD79b
T1 sequence: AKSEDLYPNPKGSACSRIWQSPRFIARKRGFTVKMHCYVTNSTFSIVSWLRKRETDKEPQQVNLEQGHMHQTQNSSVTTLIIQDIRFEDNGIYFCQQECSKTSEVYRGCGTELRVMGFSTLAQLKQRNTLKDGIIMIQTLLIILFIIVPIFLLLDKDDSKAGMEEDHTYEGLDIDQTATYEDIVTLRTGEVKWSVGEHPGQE
The test is described as follows: staining of rhesus monkey B cells; method not detailed.

Test [1] deals with T2, cyno CD79b (TAHO40) (cynomolgus monkey).
T2 construct: Target on BJAB-cyno CD79b cells (BJAB transfected with cyno CD79b) and on cynomolgus B cells; also called cynomolgus CD79b; PRO283627
T2 chain: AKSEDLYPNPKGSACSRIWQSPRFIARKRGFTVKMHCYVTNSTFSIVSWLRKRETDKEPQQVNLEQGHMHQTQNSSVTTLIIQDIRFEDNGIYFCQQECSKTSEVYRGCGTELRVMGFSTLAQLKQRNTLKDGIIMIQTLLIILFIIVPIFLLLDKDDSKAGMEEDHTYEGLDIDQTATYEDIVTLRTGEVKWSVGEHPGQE
As to the kind of experiment: staining of cynomolgus monkey B cells; method not detailed.

A further test addresses T3, human CD79b (TAHO5) (human, UniProt P40259 29-229).
T3 construct: also called PRO36249; Igbeta
T3 sequence: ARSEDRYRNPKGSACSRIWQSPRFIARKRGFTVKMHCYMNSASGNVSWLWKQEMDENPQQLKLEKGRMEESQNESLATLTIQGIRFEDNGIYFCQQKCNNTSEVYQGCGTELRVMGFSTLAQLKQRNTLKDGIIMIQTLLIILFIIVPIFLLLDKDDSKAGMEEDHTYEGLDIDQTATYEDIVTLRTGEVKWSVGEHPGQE
As to the kind of experiment: Scatchard analysis on BJAB-cyno CD79b cells (which also express human CD79b).

Test [2] has as its target T4, cyno CD79b (TAHO40) 21mer peptide (cynomolgus monkey).
T4 construct: also called cyno CD79b (TAHO40) 20 mer peptides
T4 peptide: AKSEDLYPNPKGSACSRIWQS
The test is described as follows: peptide competition: antibody pre-incubated with the cyno peptide, then FACS staining of BJAB cells.

The target in test [3] is T2, cyno CD79b (TAHO40). The test is described as follows: Scatchard analysis on BJAB-cyno CD79b cells.
In test [4] the target is T5, human CD79b (TAHO5) 21mer peptide (human).
T5 peptide: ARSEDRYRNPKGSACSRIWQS
The test is described as follows: peptide competition: antibody pre-incubated with the human 21mer peptide, then FACS staining of cells.

The Kd is the constant that tells how readily two partners part at equilibrium.

B1: anti-human CD79b (TAHO5) antibody SN8 (antibody, V domains shown)
VL: DIVLTQSPASLAVSLGQRATISCKASQSVDYDGDSFLNWYQQKPGQPPKLFIYAASNLESGIPARFSGSGSGTDFTLNIHPVEEEDAATYYCQQSNEDPLTFGAGTELELKR
VH: EVQLQQSGAELMKPGASVKISCKATGYTFSSYWIEWVKQRPGHGLEWIGEILPGGGDTNYNEIFKGKATFTADTSSNTAYMQLSSLTSEDSAVYYCTRRVPVYFDYWGQGTSVTVSS
notes: Murine monoclonal antibody, commercial (Biomeda, BD, Ancell) or from the Roswell Park hybridoma; also called anti-human CD79b (SN8)
As for B1, the results for the binding result (in the test with rhesus CD79b; in the test with cyno CD79b (TAHO40) [1]; in test [2]) were “no binding”, “no binding” and “no binding (tested: antibody:peptide 1:10)”, respectively. The molecule further displayed a Kd in the test with human CD79b (TAHO5) of 0.5 nM.

B2: anti-cyno-CD79b-10D10 (antibody, V domains shown)
VH: EVQLQESGPGLVKPSQSLSLTCTVTGYSITSDYAWNWIRQFPGNKLEWMGNIWYSGSTTYNPSLKSRISITRDTSKNQFFLQLNSVTSEDTATYYCSRMDFWGQGTTLTVSS
VL: DIVLTQSPPSLAVSLGQRATISCRASESVDSYGKTFMHWHQQKPGQPPKLLIYRVSNLESGIPARFSGSGSRTDFTLTINPVEADDVATYYCQQSNEDPFTFGGGTKLEIKR
notes: Murine hybridoma monoclonal antibody; also called 10D10.3; ATCC PTA-7715
Turning to B2, the Kd in the test with cyno CD79b (TAHO40) [3] is 1 nM. Moreover, the binding result in test [4] was “no binding (tested: antibody:peptide 1:10)”.

B3: anti-human-CD79b-2F2 (antibody, V domains shown)
VH: QVQLQQPGAELVRPGASVKLSCKASGYTFTSYWMNWVKQRPGQGLEWIGMIDPSDSETHYNHIFKDKATLTVDKSSSTAYLQLSSLTSEDSAVYYCARNLYLWGQGTSVTVSL
VL: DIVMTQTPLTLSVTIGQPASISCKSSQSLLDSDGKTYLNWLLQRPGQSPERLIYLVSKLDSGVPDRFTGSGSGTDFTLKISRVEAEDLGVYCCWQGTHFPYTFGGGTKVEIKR
notes: Murine hybridoma monoclonal antibody; also called 2F2.20.1; anti-human CD79b (TAHO5) (2F2)
As for B3, the binding result with rhesus CD79b was “no binding”; in the test with cyno CD79b (TAHO40) [1] it was “no binding”; in test [2], “no binding (tested: antibody:peptide 1:10)”.

Source of the values: patent publication US20110070243A1 (published 2011).
